Patent US20100239579A1

Target: human SIRPα (signal regulatory protein alpha), full-length (human) (UniProt P78324)
Assay: cell-based or functional assay

Sequence of human SIRPα (signal regulatory protein alpha), full-length (human) (P78324 31-504): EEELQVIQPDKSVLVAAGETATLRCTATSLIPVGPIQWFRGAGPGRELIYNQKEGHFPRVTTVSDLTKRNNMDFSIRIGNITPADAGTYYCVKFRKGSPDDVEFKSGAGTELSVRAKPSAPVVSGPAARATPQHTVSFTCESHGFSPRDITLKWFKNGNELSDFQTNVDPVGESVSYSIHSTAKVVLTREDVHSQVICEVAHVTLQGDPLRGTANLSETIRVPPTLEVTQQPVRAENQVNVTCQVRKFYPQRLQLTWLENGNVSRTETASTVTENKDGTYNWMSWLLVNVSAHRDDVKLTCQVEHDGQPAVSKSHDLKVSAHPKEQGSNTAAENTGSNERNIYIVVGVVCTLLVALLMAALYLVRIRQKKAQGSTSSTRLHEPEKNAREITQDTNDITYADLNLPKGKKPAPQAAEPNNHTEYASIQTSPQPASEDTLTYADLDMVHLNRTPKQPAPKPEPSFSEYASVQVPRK

- inhibition of FSL-1 mediated TNF-α production of human DCs by hCD47-hFc immobilized on anti-human Fc coated plates: 78 ng/mL
- inhibition of SAC-induced IL-23 secretion in human DCs: 11 ng/mL
Substance: hCD47-hFc (human CD47 extracellular Ig-V domain fused to the Fc region of human IgG1), Example 8 (from UniProt Q08722 19-142) (Fc fusion)
